Experimental findings from patent publication US6436691B1, “Chemical compounds” (Zeneca Limited, priority 1995, dated 2002) are described below.

Assay type in all cases: biochemical
A short description of data set [1]: Conversion of Hipp-Asp to hippuric acid by mutant and native human CPB, HPLC assay (Example 6). The note with it: 5 hr at 37° C.; 4 μg enzyme; 0.5 mM substrate. How it is done: (§1) Purified mutants of human CPB (D253K and D253R; Examples 1-3) and native human CPB, produced as described in Reference Example 12, were assayed for their ability to convert either hippuryl-L-aspartic acid (Hipp-Asp—Reference Example 2), hippuryl-L-glutamic acid (Hipp-Glu—Reference Example 1) or hippuryl-L-arginine (Sigma Chemical Company—cat no. H6625) to hippuric acid using a HPLC based assay.
(§2) The reaction mixture (250 μl) contained 4 μg human CPB (native or mutant) and 0.5 mM Hipp-Asp or Hipp-Glu in 0.025 M Tris-HCL, pH 7.5. Samples were incubated for 5 hr at 37° C. The reactions were terminated by the addition of 250 μl of 80% methanol, 20% distilled water, 0.2% trifluoro acetic acid and the amount of hippuric acid generated was quantified by HPLC.
(§3) HPLC analysis was carried out using a Hewlett Packard 1090 Series 11 (with diode array) HPLC system. Samples (50 μl) were injected onto a Hichrom Hi-RPB column (25 cm) and separated using a mobile phase of 40% methanol, 60% distilled water, 0.1% trifluoro acetic acid at a flow rate of 1 ml/min. The amount of product (hippuric acid) produced was determined from calibration curves generated with known amounts of hippuric acid (Sigma-H6375). The results are shown in Table 1 and are expressed as the percentage conversion of substrate into product in 5 hr at 37° C. with 4 μg enzyme.

Data set [2] is described as follows: Conversion of Hipp-Glu to hippuric acid by mutant and native human CPB, HPLC assay (Example 6). The note with it: 5 hr at 37° C.; 4 μg enzyme; 0.5 mM substrate. How it is done: as §1, §2, §3
Data set [3] is described as follows: Conversion of Hipp-Arg to hippuric acid by mutant and native human CPB, HPLC assay (Example 6). The note with it: 5 hr at 37° C.; 4 μg enzyme. How it is done: as §1, §2, §3
Data set [4] in a line: Conversion of prodrug of Example 24 to drug of Example 25 by HCPB mutants, HPLC (Example 20). Particulars: enzyme 15 μg/ml; 0.5 mM prodrug of Example 24; 5 minutes at 37° C. How it is done: The reaction was stopped by adding MeCN (500 μl) plus 0.2% Trifluoroacetic acid. The amount of drug produced was then quantified by HPLC.
HPLC separation was carried out as described in Example 6 except that a mobile phase of 70% MeCN, 30% distilled water and 0.1% trifluoroacetic acid was used to achieve separation of prodrug (retention time 3.8 minutes) and drug (retention time 4.9 minutes) and the compounds were detected at 260 nm. The amount of drug produced was quantified from calibration curves generated with known amounts of drug.
The amount of [Q54R,D145A,D253K]HCPB and [G251T,D253K]HCPB mutants was reduced to 0.75 μg in the reaction mixture.

Data set [5] can be described thus: Activity against Hipp-Glu in crude E. coli periplasmic shockate relative to D253K or D253R HCPB (Example 16). From the text:
(§4) A number of other mutant HCPBs have been constructed in a similar manner to the methods described in Reference Examples 7 and 8, and Examples 12, 13, 14 and 15. In each case oligos were constructed to introduce specific changes in the gene sequence by methods similar to those described above. In some cases additional mutations were identified upon complete sequencing of the mutated gene, and these were presumably introduced during the PCR reactions. Mutants with enzyme activity against substrate analogues (see Example 18 below) have been identified, and examples of these are given in Table 4 below. […] This material is subsequently referred to as periplasmic shockate or shockate and is prepared by the following procedure.
(§5) 1. A single colony was used to inoculate 75 ml of L-broth nutrient media containing 10 μg/ml tetracycline and arabinose to a final concentration of 0.01% (w/v). Incubation was performed at 20° C. with shaking (250 rpm) for about 60 hours.
(§6) 2. The cells were then harvested by centrifugation at 4° C.
(§7) 3. The cell pellet was re-suspended in 300 micro-liters of 20% sucrose (w/v) containing 1 mM EDTA in 200 mM Tris-HCl at pH7.5, and incubated at room-temperature for 15 minutes.
(§8) 4. Periplasmic shockate was generated by the addition of 450 micro-liters of distilled water, and a further incubation at room-temperature for 15 minutes.
(§9) 5. Cellular remains were removed by centrifugation, and the supernatant assayed for enzyme activity as soon as possible after preparation and kept at 4° C. prior to assay.
The activity of [G251T,D253K]HCPB was measured using the assay conditions described in Example 17 but using either 50 μl of a neat or 1 in 10 or 1 in 100 dilution of [G251T,D253K]HCPB crude E.coli periplasmic shockate (shockate) sample in place of purified enzyme. Samples were incubated for 24 h at 37° C. […] The amount of Hippuric acid produced in 24 h was quantified by HPLC as described in Example 17 and the results are shown in Table 6 and are expressed as the percentage conversion of substrate into product in 24 h at 37° C.

Data set [6] is described as follows: Activity against Hipp-Asp in crude E. coli periplasmic shockate relative to D253K or D253R HCPB (Example 16).
From the text: as §4, §5, §6, §7, §8, §9
(§10) The activity of [G251T,D253K]HCPB was measured using the assay conditions described in Example 17 but using either 50 μl of a neat or 1 in 10 or 1 in 100 dilution of [G251T,D253K]HCPB crude E.coli periplasmic shockate (shockate) sample in place of purified enzyme. Samples were incubated for 24 h at 37° C. […] For other HCPB mutants, the reaction volume was 250 μl and contained 125 μl of neat shockate or 1 in 50 dilution of shockate. The shockate samples were prepared as described in Example 16. The amount of Hippuric acid produced in 24 h was quantified by HPLC as described in Example 17 and the results are shown in Table 6 and are expressed as the percentage conversion of substrate into product in 24 h at 37° C.

Data set [7] is described as follows: Conversion of Hipp-Glu by purified HCPB mutants, 30 minutes, HPLC (Example 17). The note with it: 0.5 mM substrate, 30 minutes at 37° C. As to the method: (§11) Purified mutants of human CPB (D253K; [G251K,D253R]; [G251N,D253R]; [I201S,D253K]; [G251N,D253K]; [Q54R,D145A,D253K]; [G251T,D253K]; [G251S,D253K]; [A248N,G251N,D253K]; [A248S,G251N,D253K] and [S205N,G251N,D253K]—described in Examples 3, 12, 13, 16, 28, 30, 31, 32 and 33) were assayed for their ability to convert hippuryl-L-glutamic acid (Hipp-Glu—Reference Example 1), hippuryl-L-aspartic acid (Hipp-Asp—Reference Example 2) and hippuryl-L-arginine (Sigma Chemical Company—cat no. H6625) to hippuric acid using a HPLC based assay similar to that described in Example 6.
(§12) Samples were incubated for 30 minutes at 37° C. The reactions were terminated by the addition of 500 μl of 40% methanol, 60% distilled water, 0.2% trifluoro acetic acid and the amount of hippuric acid generated was quantitated by HPLC as described in Example 6 but using a mobile phase of 20% methanol, 80% 50 mM phosphate buffer, pH 6.5. Hippuric acid was detected at 230 nm. The results are shown in Table 5 and are expressed as the percentage conversion of substrate into product in 30 minutes at 37° C.

Data set [8] is described as follows: Conversion of Hipp-Asp by purified HCPB mutants, 30 minutes, HPLC (Example 17). Particulars: 0.5 mM substrate, 30 minutes at 37° C. As to the method:
as §11, §12

Data set [9] can be described thus: Conversion of Hipp-Arg by purified HCPB mutants, 30 minutes, HPLC (Example 17). The note with it: 0.5 mM substrate, 30 minutes at 37° C. As to the method: as §11, §12
A short description of data set [10]: Conversion of Hipp-Glu by periplasmic shockate of HCPB mutants, 24 h (Example 18). Particulars: 24 h at 37° C. How it is done:
as §10

The nature of data set [11]: Conversion of Hipp-Asp by periplasmic shockate of HCPB mutants, 24 h (Example 18). Particulars: shockate concentration in reaction mixture 50 %; 24 h at 37° C. How it is done:
as §10

B1: D253R HCPB: mature HCPB with aspartate 253 changed to arginine, C-terminal (His)6-c-myc tag (protein, UniProt P15086 111-417, looked up, variant D253R)
Carboxypeptidase B: ATGHSYEKYNKWETIEAWTQQVATENPALISRSVIGTTFEGRAIYLLKVGKAGQNKPAIFMDCGFHAREWISPAFCQWFVREAVRTYGREIQVTELLDKLDFYVLPVLNIDGYIYTWTKSRFWRKTRSTHTGSSCIGTDPNRNFDAGWCEIGASRNPCDETYCGPAAESEKETKALADFIRNKLSSIKAYLTIHSYSQMMIYPYSYAYKLGENNAELNALAKATVKELASLHGTKYTYGPGATTIYPAAGGSRDWAYDQGIRYSFTFELRDTGRYGFLLPESQIRATCEETFLAIKYVASYVLEHLY
modifications: (His)6-c-myc tag
B1: the “Hipp-Asp (% conversion to Hippuric acid)” value in data set [1] was 72%. For the same molecule, the “Hipp-Glu (% conversion to Hippuric acid)” value in data set [2] is reported as 52%. In addition, the “Hipp-Arg (% conversion to Hippuric acid)” value in data set [3] was 3%. For the same molecule, the “Prodrug Hydrolysis (%)” value in [4] turned out to be 18.3%.

B2: [I201T, D253R]: HCPB mutant with I201T and D253R, (His)6-c-myc tag (protein, UniProt P15086 111-417, looked up, variant I201T D253R)
Carboxypeptidase B: ATGHSYEKYNKWETIEAWTQQVATENPALISRSVIGTTFEGRAIYLLKVGKAGQNKPAIFMDCGFHAREWISPAFCQWFVREAVRTYGREIQVTELLDKLDFYVLPVLNIDGYIYTWTKSRFWRKTRSTHTGSSCIGTDPNRNFDAGWCEIGASRNPCDETYCGPAAESEKETKALADFIRNKLSSIKAYLTIHSYSQMMTYPYSYAYKLGENNAELNALAKATVKELASLHGTKYTYGPGATTIYPAAGGSRDWAYDQGIRYSFTFELRDTGRYGFLLPESQIRATCEETFLAIKYVASYVLEHLY
modifications: (His)6-c-myc tag
With B2, in data set [5], the “Hipp-Glu, activity relative to D253K HCPB or D253R HCPB” value is on record as “b (activity equivalent to D253R HCPB)”. Also, the “Hipp-Asp, activity relative to D253K HCPB or D253R HCPB” value in data set [6] is “b (activity equivalent to D253R HCPB)”.

B3: [I201S, D253K]: HCPB mutant with I201S and D253K (protein, UniProt P15086 111-417, looked up, variant I201S D253K)
Carboxypeptidase B: ATGHSYEKYNKWETIEAWTQQVATENPALISRSVIGTTFEGRAIYLLKVGKAGQNKPAIFMDCGFHAREWISPAFCQWFVREAVRTYGREIQVTELLDKLDFYVLPVLNIDGYIYTWTKSRFWRKTRSTHTGSSCIGTDPNRNFDAGWCEIGASRNPCDETYCGPAAESEKETKALADFIRNKLSSIKAYLTIHSYSQMMSYPYSYAYKLGENNAELNALAKATVKELASLHGTKYTYGPGATTIYPAAGGSKDWAYDQGIRYSFTFELRDTGRYGFLLPESQIRATCEETFLAIKYVASYVLEHLY
Consider B3, for which the “Hipp-Glu, activity relative to D253K HCPB or D253R HCPB” value in data set [5] was “NAD (No activity detected)”. Further, in data set [6], the “Hipp-Asp, activity relative to D253K HCPB or D253R HCPB” value is given as “b (activity equivalent to D253R HCPB)”. The figures for the “Hipp-Glu (% conversion)” value in [7] (enzyme 2.5 μg/ml) and in data set [7] (enzyme 25 μg/ml) were 4.6% and 27.8%, respectively. For the same molecule, the “Hipp-Asp (% conversion)” value in [8] (enzyme 2.5 μg/ml) turned out to be 5.8%; in [8] (enzyme 25 μg/ml), 33.1%. The “Hipp-Arg (% conversion)” value in [9] (enzyme 2.5 μg/ml) and in [9] (enzyme 25 μg/ml) was 0% in each case. Also, the “Prodrug Hydrolysis (%)” value in data set [4] is reported as 72.6%.

B4: [G251S, D253K]: HCPB mutant with G251S and D253K, (His)6-c-myc tag (protein, UniProt P15086 111-417, looked up, variant G251S D253K)
Carboxypeptidase B: ATGHSYEKYNKWETIEAWTQQVATENPALISRSVIGTTFEGRAIYLLKVGKAGQNKPAIFMDCGFHAREWISPAFCQWFVREAVRTYGREIQVTELLDKLDFYVLPVLNIDGYIYTWTKSRFWRKTRSTHTGSSCIGTDPNRNFDAGWCEIGASRNPCDETYCGPAAESEKETKALADFIRNKLSSIKAYLTIHSYSQMMIYPYSYAYKLGENNAELNALAKATVKELASLHGTKYTYGPGATTIYPAAGSSKDWAYDQGIRYSFTFELRDTGRYGFLLPESQIRATCEETFLAIKYVASYVLEHLY
modifications: (His)6-c-myc tag
For B4, the “Hipp-Glu, activity relative to D253K HCPB or D253R HCPB” value in [5] is “e (>10 times the activity of D253K HCPB)”. Also, the “Hipp-Glu (% conversion)” value in [7] (enzyme 0.25 μg/ml) is 14.5%; in data set [7] (enzyme 25 μg/ml), 100%; in data set [10] (shockate concentration in reaction mixture 1 %) it was 5%; in data set [10] (shockate concentration in reaction mixture 50 %) it was 93.8%. Moreover, the “Hipp-Asp (% conversion)” value is given as 0% in data set [8] (enzyme 0.25 μg/ml), 2.8% in data set [8] (enzyme 25 μg/ml) and 1.6% in data set [11]. The “Hipp-Arg (% conversion)” value is recorded as 0% in [9] (enzyme 0.25 μg/ml) and 0.8% in data set [9] (enzyme 25 μg/ml).
